Assay results: US20200399389A1 (PHANES THERAPEUTICS, published 2020)

T1: HIS-tagged human CD73 (huCD73-HIS) (human, UniProt P21589 27-547)
T1 sequence: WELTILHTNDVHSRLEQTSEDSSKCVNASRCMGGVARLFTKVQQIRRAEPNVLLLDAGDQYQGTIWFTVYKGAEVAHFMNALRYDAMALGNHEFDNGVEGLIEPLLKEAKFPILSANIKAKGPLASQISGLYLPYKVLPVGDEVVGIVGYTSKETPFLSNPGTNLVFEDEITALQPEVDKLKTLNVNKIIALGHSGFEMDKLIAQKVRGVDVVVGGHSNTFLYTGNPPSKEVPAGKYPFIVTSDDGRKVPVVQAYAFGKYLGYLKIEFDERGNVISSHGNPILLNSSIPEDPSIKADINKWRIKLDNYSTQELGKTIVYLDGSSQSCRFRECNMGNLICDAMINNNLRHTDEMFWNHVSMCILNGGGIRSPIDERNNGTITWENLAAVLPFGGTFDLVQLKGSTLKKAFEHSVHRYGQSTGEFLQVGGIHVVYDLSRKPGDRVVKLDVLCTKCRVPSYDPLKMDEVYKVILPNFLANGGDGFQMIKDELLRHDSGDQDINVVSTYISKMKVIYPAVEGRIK

T2: human CD73 expressed on the surface of cells (human, UniProt P21589 27-549)
T2 sequence: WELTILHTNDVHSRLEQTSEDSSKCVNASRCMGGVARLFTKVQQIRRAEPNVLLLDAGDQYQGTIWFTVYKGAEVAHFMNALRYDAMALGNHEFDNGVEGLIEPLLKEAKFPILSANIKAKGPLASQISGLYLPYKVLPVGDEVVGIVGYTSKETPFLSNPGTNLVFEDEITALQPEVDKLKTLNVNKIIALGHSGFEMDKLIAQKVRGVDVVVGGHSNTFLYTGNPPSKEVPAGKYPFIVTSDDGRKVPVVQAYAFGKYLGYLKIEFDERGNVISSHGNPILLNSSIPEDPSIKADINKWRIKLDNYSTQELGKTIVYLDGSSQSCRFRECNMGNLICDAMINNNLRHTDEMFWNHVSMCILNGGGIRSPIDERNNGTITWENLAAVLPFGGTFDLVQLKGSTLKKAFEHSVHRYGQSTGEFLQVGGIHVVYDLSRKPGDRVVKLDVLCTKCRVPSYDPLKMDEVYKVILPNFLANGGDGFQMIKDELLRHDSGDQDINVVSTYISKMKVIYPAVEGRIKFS

B1: 60A9-H1L1 (antibody, V domains shown)
VH: EVQLVESGGGLVQPGQSLKLSCKASGYAFSSYWMNWVRQAPGKGLEWMGQIYPGDGDTYYNPSVKGRFTISADTSKNTAYLQLNNLRAEDTAVYYCAREAIYYGNYVFTYWGQGTLVTVSS
VL: DIQMTQSPSLLSASLGDRVTITCKSSQSLLNSSNQKNYLAWYQQKPGQSPKLLIYFASTRDSGVPDRFSGSGSGTDFTLTISSLEPEDFATYYCQQHYSTPLTFGGGTKLEIK
B2: 60A9-H1L2 (antibody, V domains shown)
VH: EVQLVESGGGLVQPGQSLKLSCKASGYAFSSYWMNWVRQAPGKGLEWMGQIYPGDGDTYYNPSVKGRFTISADTSKNTAYLQLNNLRAEDTAVYYCAREAIYYGNYVFTYWGQGTLVTVSS
VL: DIVMTQSPSSLSASLGDRVTITCKSSQSLLNSSNQKNYLAWYQQKPGQSPKLLIYFASTRDSGVPDRFSGSGSGTDFTLTISSLEPEDFATYYCQQHYSTPLTFGGGTKLEIK
B3: 60A9-H3L1 (antibody, V domains shown)
VH: EVQLVESGGGLVQPGQSLKLSCKASGYAFSSYWMNWVRQAPGKGLEWIGQIYPGDGDTYYNPSVKGRATLSADKSKNTAYLQLNNLRAEDTAVYYCAREAIYYGNYVFTYWGQGTLVTVSS
VL: DIQMTQSPSLLSASLGDRVTITCKSSQSLLNSSNQKNYLAWYQQKPGQSPKLLIYFASTRDSGVPDRFSGSGSGTDFTLTISSLEPEDFATYYCQQHYSTPLTFGGGTKLEIK
B4: 60A9-H4L2 (antibody, V domains shown)
VH: EVQLVESGGGLVQPGQSLKLSCKASGYAFSSYWMNWVRQAPGKGLEWIGQIYPGDGDTYYSGSVKGRATLSADKSKNTAYLQLNNLRAEDTAVYYCAREAIYYGNYVFTYWGQGTLVTVSS
VL: DIVMTQSPSSLSASLGDRVTITCKSSQSLLNSSNQKNYLAWYQQKPGQSPKLLIYFASTRDSGVPDRFSGSGSGTDFTLTISSLEPEDFATYYCQQHYSTPLTFGGGTKLEIK
B5: 60A9-H2L3 (antibody, V domains shown)
VH: EVQLVESGGGLVQPGGSLRLSCKASGYAFSSYWMNWVRQAPGKGLEWVGQIYPGDGDTYYNPSVKGRFTISADTSKNTLYLQMNSLRAEDTAVYYCAREAIYYGNYVFTYWGQGTLVTVSS
VL: DIQMTQSPSLLSASLGDRVTITCKSSQSLLNSSNQKNYLAWYQQKPGQSPKLLVYFASTRDSGVPDRFSGSGSGTDFTLTISSLEPEDFATYYCQQHYSTPLTFGGGTKLEIK
B6: 60A9-H3L2 (antibody, V domains shown)
VH: EVQLVESGGGLVQPGQSLKLSCKASGYAFSSYWMNWVRQAPGKGLEWIGQIYPGDGDTYYNPSVKGRATLSADKSKNTAYLQLNNLRAEDTAVYYCAREAIYYGNYVFTYWGQGTLVTVSS
VL: DIVMTQSPSSLSASLGDRVTITCKSSQSLLNSSNQKNYLAWYQQKPGQSPKLLIYFASTRDSGVPDRFSGSGSGTDFTLTISSLEPEDFATYYCQQHYSTPLTFGGGTKLEIK
B7: 60A9-H2L1 (antibody, V domains shown)
VH: EVQLVESGGGLVQPGGSLRLSCKASGYAFSSYWMNWVRQAPGKGLEWVGQIYPGDGDTYYNPSVKGRFTISADTSKNTLYLQMNSLRAEDTAVYYCAREAIYYGNYVFTYWGQGTLVTVSS
VL: DIQMTQSPSLLSASLGDRVTITCKSSQSLLNSSNQKNYLAWYQQKPGQSPKLLIYFASTRDSGVPDRFSGSGSGTDFTLTISSLEPEDFATYYCQQHYSTPLTFGGGTKLEIK
B8: 60A9-H4L3 (antibody, V domains shown)
VH: EVQLVESGGGLVQPGQSLKLSCKASGYAFSSYWMNWVRQAPGKGLEWIGQIYPGDGDTYYSGSVKGRATLSADKSKNTAYLQLNNLRAEDTAVYYCAREAIYYGNYVFTYWGQGTLVTVSS
VL: DIQMTQSPSLLSASLGDRVTITCKSSQSLLNSSNQKNYLAWYQQKPGQSPKLLVYFASTRDSGVPDRFSGSGSGTDFTLTISSLEPEDFATYYCQQHYSTPLTFGGGTKLEIK
B9: 60A9-H1L3 (antibody, V domains shown)
VH: EVQLVESGGGLVQPGQSLKLSCKASGYAFSSYWMNWVRQAPGKGLEWMGQIYPGDGDTYYNPSVKGRFTISADTSKNTAYLQLNNLRAEDTAVYYCAREAIYYGNYVFTYWGQGTLVTVSS
VL: DIQMTQSPSLLSASLGDRVTITCKSSQSLLNSSNQKNYLAWYQQKPGQSPKLLVYFASTRDSGVPDRFSGSGSGTDFTLTISSLEPEDFATYYCQQHYSTPLTFGGGTKLEIK
B10: 60A9-H4L1 (antibody, V domains shown)
VH: EVQLVESGGGLVQPGQSLKLSCKASGYAFSSYWMNWVRQAPGKGLEWIGQIYPGDGDTYYSGSVKGRATLSADKSKNTAYLQLNNLRAEDTAVYYCAREAIYYGNYVFTYWGQGTLVTVSS
VL: DIQMTQSPSLLSASLGDRVTITCKSSQSLLNSSNQKNYLAWYQQKPGQSPKLLIYFASTRDSGVPDRFSGSGSGTDFTLTISSLEPEDFATYYCQQHYSTPLTFGGGTKLEIK
B11: 60A9-H2L2 (antibody, V domains shown)
VH: EVQLVESGGGLVQPGGSLRLSCKASGYAFSSYWMNWVRQAPGKGLEWVGQIYPGDGDTYYNPSVKGRFTISADTSKNTLYLQMNSLRAEDTAVYYCAREAIYYGNYVFTYWGQGTLVTVSS
VL: DIVMTQSPSSLSASLGDRVTITCKSSQSLLNSSNQKNYLAWYQQKPGQSPKLLIYFASTRDSGVPDRFSGSGSGTDFTLTISSLEPEDFATYYCQQHYSTPLTFGGGTKLEIK
B12: 60A9-H4L4 (antibody, V domains shown)
VH: EVQLVESGGGLVQPGQSLKLSCKASGYAFSSYWMNWVRQAPGKGLEWIGQIYPGDGDTYYSGSVKGRATLSADKSKNTAYLQLNNLRAEDTAVYYCAREAIYYGNYVFTYWGQGTLVTVSS
VL: DIVMTQSPSLLSASLGDRVTISCKSSQSLLNSSNQKNYLAWYQQKPGQSPKLLVYFASTRDSGVPDRFSGSGSGTDFTLTISSLEPEDFATYFCQQHYSTPLTFGAGTKLEIK
B13: 60A9-H3L4 (antibody, V domains shown)
VH: EVQLVESGGGLVQPGQSLKLSCKASGYAFSSYWMNWVRQAPGKGLEWIGQIYPGDGDTYYNPSVKGRATLSADKSKNTAYLQLNNLRAEDTAVYYCAREAIYYGNYVFTYWGQGTLVTVSS
VL: DIVMTQSPSLLSASLGDRVTISCKSSQSLLNSSNQKNYLAWYQQKPGQSPKLLVYFASTRDSGVPDRFSGSGSGTDFTLTISSLEPEDFATYFCQQHYSTPLTFGAGTKLEIK
B14: 60A9-H5L3 (antibody, V domains shown)
VH: EVQLVESGGGLVQPGQSLKLSCKASGYAFSSYWMNWVKQRPGKGLEWIGQIYPGDGDTYYSGKFKGRATLSADKSKNTAYLQLNNLRAEDTAVYYCAREAIYYGNYVFTYWGQGTLVTVSS
VL: DIQMTQSPSLLSASLGDRVTITCKSSQSLLNSSNQKNYLAWYQQKPGQSPKLLVYFASTRDSGVPDRFSGSGSGTDFTLTISSLEPEDFATYYCQQHYSTPLTFGGGTKLEIK
B15: 60A9-H2L4 (antibody, V domains shown)
VH: EVQLVESGGGLVQPGGSLRLSCKASGYAFSSYWMNWVRQAPGKGLEWVGQIYPGDGDTYYNPSVKGRFTISADTSKNTLYLQMNSLRAEDTAVYYCAREAIYYGNYVFTYWGQGTLVTVSS
VL: DIVMTQSPSLLSASLGDRVTISCKSSQSLLNSSNQKNYLAWYQQKPGQSPKLLVYFASTRDSGVPDRFSGSGSGTDFTLTISSLEPEDFATYFCQQHYSTPLTFGAGTKLEIK
B16: 60A9-H5L2 (antibody, V domains shown)
VH: EVQLVESGGGLVQPGQSLKLSCKASGYAFSSYWMNWVKQRPGKGLEWIGQIYPGDGDTYYSGKFKGRATLSADKSKNTAYLQLNNLRAEDTAVYYCAREAIYYGNYVFTYWGQGTLVTVSS
VL: DIVMTQSPSSLSASLGDRVTITCKSSQSLLNSSNQKNYLAWYQQKPGQSPKLLIYFASTRDSGVPDRFSGSGSGTDFTLTISSLEPEDFATYYCQQHYSTPLTFGGGTKLEIK
B17: 60A9-H5L1 (antibody, V domains shown)
VH: EVQLVESGGGLVQPGQSLKLSCKASGYAFSSYWMNWVKQRPGKGLEWIGQIYPGDGDTYYSGKFKGRATLSADKSKNTAYLQLNNLRAEDTAVYYCAREAIYYGNYVFTYWGQGTLVTVSS
VL: DIQMTQSPSLLSASLGDRVTITCKSSQSLLNSSNQKNYLAWYQQKPGQSPKLLIYFASTRDSGVPDRFSGSGSGTDFTLTISSLEPEDFATYYCQQHYSTPLTFGGGTKLEIK

The binders below were run against T1, HIS-tagged human CD73 (huCD73-HIS) (assay: cell-based or functional assay).
With B1 the “IC50 (nM), huCD73 enzymatic assay in solution” value (“IC50 (nM) … in solution” for short) was 3.34 nM.
For B2, the “IC50 (nM) … in solution” value was 6.17 nM.
In the case of B3, the “IC50 (nM) … in solution” value is reported as 2.94 nM.
With B4 the “IC50 (nM) … in solution” value was 4.97 nM.
B5 was tested, and the “IC50 (nM) … in solution” value was 4.57 nM.
B6 was tested, and the “IC50 (nM) … in solution” value was 4.97 nM.
For B7, the “IC50 (nM) … in solution” value was 4.13 nM.
In the case of B8, the “IC50 (nM) … in solution” value is reported as 2.74 nM.
With B9 the “IC50 (nM) … in solution” value was 4.96 nM.
B10 was tested, and the “IC50 (nM) … in solution” value was 3.1 nM.
In the case of B11, the “IC50 (nM) … in solution” value is reported as 11.2 nM.

These binders were tested against T2, human CD73 expressed on the surface of … (assay: cell-based or functional assay).
B12 was tested, and the “IC50 (nM), cell-based CD73 activity assay (A375 cells)” value (“IC50 (nM) … (A375 cells)” below) was 135 nM.
For B13, the “IC50 (nM) … (A375 cells)” value was 134 nM.
For B14, the “IC50 (nM) … (A375 cells)” value was 36.4 nM.
In the case of B15, the “IC50 (nM) … (A375 cells)” value is reported as 46 nM.
B16 was tested, and the “IC50 (nM) … (A375 cells)” value was 57.3 nM.
For B17, the “IC50 (nM) … (A375 cells)” value was 61 nM.
